“Also recorded” adds a separate entry of the source.
Tests used:
AR = AR transactivation reporter gene assay in H1299 cells with ARA67; type: cell-based, human
Protocol: (§1) H1299 and COS-1 cells were maintained in Dulbecco's modified Eagle's medium (DMEM) (Life Technologies, Inc.) supplemented with 10% heat inactivated fetal bovine serum (FBS). LNCap cells were maintained in RPMI 1640 supplemented with […]. All media contain 100 units penicillin, 100 μg/ml streptomycin and 2 mM L-glutamine. Cells were seeded to a density of 50-60% confluency for transfection. In transfections where H1299 and COS-1 cells were used, the calcium phosphate precipitation method was used as described (Pan H J, et al. 1999. Endocrine 11:321-327) unless otherwise noted. […] In other reporter gene assays, where ligand treatment was required, cell culture media were changed to DMEM containing 10% charcoal-dextran-stripped FBS (CD-FBS) 2 h before transfection. After 16-18 h transfection, cells were treated with medium containing either vehicle or ligands for another 20-24 h and then cells were harvested. With LNCap cells transfection, the cells were treated with fresh RPMI 1640 containing 10% CD-FBS before transfection with SuperFect performed according to the manufacturer's protocol (Qiagen). After transfection, cells were allowed to recover in fresh RPMI 1640 containing 10% CD-FBS for 8-12 h, and then treated with either vehicle or ligands for another 20-24 h before harvesting. Each experiment was repeated at least three times.

GR = target: T1, GR (Homo sapiens, UniProt P04150); assay: GR transactivation reporter gene assay in H1299 cells with ARA67; type: cell-based; settings: 500 ng pSG5-ARA67, MMTV-Luc, cognate ligand
T1 construct: host or cells: H1299
T1 sequence (P04150 1-777): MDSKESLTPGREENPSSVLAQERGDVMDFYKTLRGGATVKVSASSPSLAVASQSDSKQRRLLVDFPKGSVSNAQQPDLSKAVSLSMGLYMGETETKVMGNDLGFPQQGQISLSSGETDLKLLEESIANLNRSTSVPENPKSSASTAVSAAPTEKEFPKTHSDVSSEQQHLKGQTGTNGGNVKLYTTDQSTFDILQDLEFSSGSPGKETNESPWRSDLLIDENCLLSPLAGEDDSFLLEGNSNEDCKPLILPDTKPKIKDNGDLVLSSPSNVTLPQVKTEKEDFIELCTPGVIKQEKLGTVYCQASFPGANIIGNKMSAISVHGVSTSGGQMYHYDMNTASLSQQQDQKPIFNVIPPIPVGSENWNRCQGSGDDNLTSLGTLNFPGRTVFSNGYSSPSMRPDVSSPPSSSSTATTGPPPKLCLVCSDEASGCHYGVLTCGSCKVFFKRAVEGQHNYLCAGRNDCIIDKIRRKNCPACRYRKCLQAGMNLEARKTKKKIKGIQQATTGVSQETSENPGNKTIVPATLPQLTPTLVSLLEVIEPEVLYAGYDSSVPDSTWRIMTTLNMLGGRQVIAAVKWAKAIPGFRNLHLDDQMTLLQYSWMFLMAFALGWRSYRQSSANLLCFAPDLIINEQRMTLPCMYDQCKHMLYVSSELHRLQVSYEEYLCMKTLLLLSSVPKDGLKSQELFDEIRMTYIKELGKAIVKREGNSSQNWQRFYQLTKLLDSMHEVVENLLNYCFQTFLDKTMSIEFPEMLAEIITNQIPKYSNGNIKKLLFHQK
Protocol: as §1

ER = ER transactivation reporter gene assay in H1299 cells with ARA67; type: cell-based; settings: 500 ng pSG5-ARA67, ERE-Luc, cognate ligand
Protocol: as §1

[1] = test system: PSA expression in LNCaP cells; assay: DHT induced PSA expression in LNCaP cells transfected with ARA67 (Western blot); type: cell-based, human; settings: pSG5-ARA67 transfected
Protocol: as §1, with “times. […]” for “times.”

ARN = target: T2, ARN (Homo sapiens, UniProt P10275); assay: Mammalian two-hybrid assay ARA67 / ARN in H1299 cells; type: cell-based; settings: pM-ARA67 and pVP16-ARN, pG5-Luc
T2 construct: The AR has a large N-terminus (ARN); expressed in transfected cells; host or cells: H1299
T2 sequence (P10275 1-559 limits assumed): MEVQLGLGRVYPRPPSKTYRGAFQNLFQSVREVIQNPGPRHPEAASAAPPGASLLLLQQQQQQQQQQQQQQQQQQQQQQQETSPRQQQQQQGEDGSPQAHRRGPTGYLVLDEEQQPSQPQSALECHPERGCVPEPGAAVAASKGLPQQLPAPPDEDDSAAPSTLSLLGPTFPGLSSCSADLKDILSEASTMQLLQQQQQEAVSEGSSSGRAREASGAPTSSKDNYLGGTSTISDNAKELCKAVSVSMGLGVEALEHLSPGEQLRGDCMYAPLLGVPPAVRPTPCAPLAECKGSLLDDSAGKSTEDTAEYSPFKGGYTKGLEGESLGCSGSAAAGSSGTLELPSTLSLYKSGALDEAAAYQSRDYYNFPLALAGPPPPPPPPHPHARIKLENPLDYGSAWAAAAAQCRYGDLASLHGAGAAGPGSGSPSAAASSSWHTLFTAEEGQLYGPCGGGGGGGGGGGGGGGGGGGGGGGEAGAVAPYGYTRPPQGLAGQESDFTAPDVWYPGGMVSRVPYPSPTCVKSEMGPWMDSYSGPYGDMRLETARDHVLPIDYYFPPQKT
T2 sequence (Q92624 1-585 partner): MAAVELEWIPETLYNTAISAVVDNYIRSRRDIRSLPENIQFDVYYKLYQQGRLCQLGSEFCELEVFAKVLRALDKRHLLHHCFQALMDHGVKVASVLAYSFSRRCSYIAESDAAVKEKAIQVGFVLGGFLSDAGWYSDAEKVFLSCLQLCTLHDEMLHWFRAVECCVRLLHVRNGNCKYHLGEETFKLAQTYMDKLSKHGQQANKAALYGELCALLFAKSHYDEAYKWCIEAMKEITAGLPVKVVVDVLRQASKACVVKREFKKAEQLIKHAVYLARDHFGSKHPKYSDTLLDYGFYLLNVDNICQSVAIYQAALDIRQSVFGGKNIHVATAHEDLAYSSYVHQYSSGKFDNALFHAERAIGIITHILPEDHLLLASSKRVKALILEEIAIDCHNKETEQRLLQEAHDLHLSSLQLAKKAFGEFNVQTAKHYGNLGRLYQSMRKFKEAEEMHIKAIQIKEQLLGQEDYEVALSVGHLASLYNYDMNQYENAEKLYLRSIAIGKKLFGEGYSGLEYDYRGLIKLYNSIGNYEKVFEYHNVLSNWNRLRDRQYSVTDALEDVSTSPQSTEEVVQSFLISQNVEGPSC
Protocol: as §1

microtubules = settings: in the presence of Mg-ATP; cited from earlier work

AR, sequence (P10275 with tags, fused parts or gaps DEL79-80/DUP473-473): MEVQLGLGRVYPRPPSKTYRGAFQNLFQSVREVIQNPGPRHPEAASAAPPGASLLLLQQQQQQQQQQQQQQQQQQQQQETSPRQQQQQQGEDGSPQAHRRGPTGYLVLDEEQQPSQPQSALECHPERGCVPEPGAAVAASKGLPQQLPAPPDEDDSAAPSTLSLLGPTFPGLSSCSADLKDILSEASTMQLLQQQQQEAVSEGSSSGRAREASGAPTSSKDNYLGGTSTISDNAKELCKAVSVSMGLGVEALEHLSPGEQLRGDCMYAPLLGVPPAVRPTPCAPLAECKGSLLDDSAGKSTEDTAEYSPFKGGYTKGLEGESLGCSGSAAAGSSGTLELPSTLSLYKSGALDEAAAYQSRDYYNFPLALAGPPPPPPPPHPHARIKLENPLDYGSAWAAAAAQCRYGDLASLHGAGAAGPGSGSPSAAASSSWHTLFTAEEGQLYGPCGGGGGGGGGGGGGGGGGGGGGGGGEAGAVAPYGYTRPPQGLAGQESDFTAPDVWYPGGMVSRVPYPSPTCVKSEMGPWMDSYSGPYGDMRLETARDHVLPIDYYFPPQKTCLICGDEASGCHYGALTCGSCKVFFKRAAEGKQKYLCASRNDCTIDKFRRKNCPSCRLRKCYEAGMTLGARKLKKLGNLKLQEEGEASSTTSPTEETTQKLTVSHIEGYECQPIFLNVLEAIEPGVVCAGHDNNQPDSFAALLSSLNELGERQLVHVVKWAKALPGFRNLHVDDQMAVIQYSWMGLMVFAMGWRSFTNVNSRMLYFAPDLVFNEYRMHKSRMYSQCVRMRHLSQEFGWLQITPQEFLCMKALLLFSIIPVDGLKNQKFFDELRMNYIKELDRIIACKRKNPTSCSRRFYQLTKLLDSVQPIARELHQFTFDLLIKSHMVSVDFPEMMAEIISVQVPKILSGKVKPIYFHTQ

suppression on GR (GR): 20%
reporter luciferase activity (association with ARN) (ARN): highly induced
B1: ARA67: AR N-terminal interacting protein of 585 amino acids (SEQ ID NO:1), matches PAT1; functions as a repressor of AR (protein)
chain: MAAVELEWIPETLYNTAISAVVDNYIRSRRDIRSLPENIQFDVYYKLYQQGRLCQLGSEFCELEVFAKVLRALDKRHLLHHCFQALMDHGVKVASVLAYSFSRRCSYIAESDAAVKEKAIQVGFVLGGFLSDAGWYSDAEKVFLSCLQLCTLHDEMLHWFRAVECCVRLLHVRNGNCKYHLGEETFKLAQTYMDKLSKHGQQANKAALYGELCALLFAKSHYDEAYKWCIEAMKEITAGLPVKVVVDVLRQASKACVVKREFKKAEQLIKHAVYLARDHFGSKHPKYSDTLLDYGFYLLNVDNICQSVAIYQAALDIRQSVFGGKNIHVATAHEDLAYSSYVHQYSSGKFDNALFHAERAIGIITHILPEDHLLLASSKRVKALILEEIAIDCHNKETEQRLLQEAHDLHLSSLQLAKKAFGEFNVQTAKHYGNLGRLYQSMRKFKEAEEMHIKAIQIKEQLLGQEDYEVALSVGHLASLYNYDMNQYENAEKLYLRSIAIGKKLFGEGYSGLEYDYRGLIKLYNSIGNYEKVFEYHNVLSNWNRLRDRQYSVTDALEDVSTSPQSTEEVVQSFLISQNVEGPSC
repression of AR activity relative to PR activity (AR): approximately 2.5 times
suppression on AR activity (AR; H1299 cells, 500 ng pSG5-ARA67, MMTV-Luc, cognate ligand): 50%
DHT-induced AR transactivation (AR; H1299 cells, MMTV-Luc and ARE4-Luc, 10 nM DHT): suppressed
ARA70N enhanced AR transactivation (AR; H1299 cells, PSA-Luc and ARE4-Luc, 10 nM DHT): repressed dose-dependently
effect on ER transactivation (ER): nearly unaffected; also recorded: little effect
DHT induced PSA expression [1]: decreased
enhancement of microtubule binding (microtubules): 5-10 fold

— patent US20080050387A1, “Non-Androgen Dependent Roles for Androgen Receptor and Non-Androgen Related Inhibitors of Androgen Receptor” (priority 2003, published 2008)
